Measurements: patent US20190241655A1 (Merck Sharp & Dohme, published 2019)
Substitutions are numbered along the chain they refer to.

B1: DX435 (antibody, V domains shown)
VH: EVQLQQSGPEMVKPGASVKISCKASGYAFTDYNIHWVKKSHGKSPEWIGHIYPYNKDTVFNQNKTKATLTVDKSTTTAYMDLRSLTSEDSAVYYCARGAVGYFDYWGQGTTLTVSS
VL: DIQMTQSPASLSASVGETVTITCRASGNIHNFLAWYQQKQGKSPQLLVYNAKTLADGVPSRFSGSGSGTQYSLKINSLQPEDFGSYYCQHFWSYPFTFGAGTKLELK
notes: Mouse hybridoma anti-ILT3 antibody tested as hybridoma supernatant
B2: DX439 (antibody, V domains shown)
VH: EVQLQQPGPELVKPGASVKISCKASGYTFTDYNMHWVRQRHGKSLEWIGHIYPYNGNTVYNQRFKNKATLNVDNFSSTAYMELRSLTSEDSAVYYCARGAVGYFDHWGQGTTLTVSS
VL: B1 VL with K42R, S85N, K103N
notes: as for B1
B3: DX440 (antibody, V domains shown)
VH: EVQLQQSGPELVKPGASVKISCKASGYTFSDYNMHWVKQSHGKSLKWIGHIFPYIGDTVYNQKFTSKATLTVDNSSSTGYMEIRSLTSEDSAVYYCARGAVGYFDYWGQGTTLTVSS
VL: B1 VL with F32Y, L46F, S85T, Y94F
notes: as for B1
B4: DX446 (antibody, V domains shown)
VH: QIQLVQSGPELKKPGETVKISCKASGYTFTNYRMTWVKQAPGKGLKWMGWINTNTGDPTYAEELKGRFAFSSETSASTAYLQINNLKNEDTATYFCAREGFFNYAMDYWGQGTSVTVSS
VL: DILLTQSPAILSVSPGKRVSFSCRASQSIGTSIHWYQQRTNGSPRLLIKYASESISGIPSRFSGSGSGTDFTLSINSVESEDIADYYCQQSNSWPPTFGAGTKLELK
notes: Mouse hybridoma anti-ILT3 antibody tested as hybridoma supernatant; also called Anti-ILT3 (DX446)

Biological target: T1, ILT3Fc (human)
T1 construct: also called ILT3Fc-fusion protein; human ILT3Fc
Test: Octet (BLI), ILT3Fc on anti-human Fc biosensors, antibody supernatant 167 nM

T1 sequence (chain, as listed by the source limits assumed): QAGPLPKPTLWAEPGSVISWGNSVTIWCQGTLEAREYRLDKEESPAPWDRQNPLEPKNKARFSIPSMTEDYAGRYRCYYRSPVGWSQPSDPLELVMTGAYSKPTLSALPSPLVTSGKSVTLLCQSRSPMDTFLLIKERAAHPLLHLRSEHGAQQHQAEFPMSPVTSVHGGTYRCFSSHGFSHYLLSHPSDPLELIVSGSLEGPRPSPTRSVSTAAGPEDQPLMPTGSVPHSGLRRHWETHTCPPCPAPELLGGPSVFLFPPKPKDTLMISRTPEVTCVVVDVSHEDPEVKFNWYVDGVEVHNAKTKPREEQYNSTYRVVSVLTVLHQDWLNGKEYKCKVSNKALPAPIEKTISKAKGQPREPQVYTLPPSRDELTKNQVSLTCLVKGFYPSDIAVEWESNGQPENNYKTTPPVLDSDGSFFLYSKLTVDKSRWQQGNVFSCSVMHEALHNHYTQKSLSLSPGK

Row | Binder | binding result
1 | B1 | binds
2 | B2 | binds
3 | B3 | binds
4 | B4 | binds
